From the DeepSol protein solubility set

test: soluble on expression in E. coli; label from the status in PepcDB or PDB records

Sequence	soluble on expression in E. coli
MSVCLFLRFCSLRVRCRRLMCRPGEIIHIMWSALAWRWCAVMLTGSQRYAFCNDRFHNRKITRLRNNFMPNILPTDLCANTPTLAIHDNRGFAIRTLAYNRRDHNETIGELISRNRYNASGQLIASRDPRLEVDNFRYQYSLSGVPLRTDSVDSGSTLQLADSAGRTVLTLDAHHTRRWVEYETGEHSLGRPLSYHEQAKGGLKTVTDRFFYATNSEQDKSGNLNGQCVRHYDSAGLQALINQSIIGVPLQQQRRLLTNPKGPVDWFGEKENWGARLSEQPFVSHSTTDALGQLLTQTDAKGHIQRMAYNRAGQLIGSWLTIKNSAEQVILRSLTYSAAGQKLREESGNGVITEYRYEPQTQRLIGIKTTRPAKKDRPTRLQDLRYDYDPVGNILAIHNDAEATRFYRNQKIVPETTYRYDALYQLIEATGREADTNGIQNSQLPALASLNDSNQFVNYTRSYHYDRAGNLLKIQHTGASQYSTHITVSDSSNHGIQQQEGITARDIRSQFDAAGNQQQLQPGQPLRWNSRNQLQQVEPVPRNDGISDSESYLYDGGGSRVVKTSLHKTHNAIQTRSVIYLAGLELRSQYNGNNLTEDFQVITVGAAGRAQVRVLHWERGQPVDIVNDQLRYSFDNHLGSALIELDSDGDIISQEEYYPFGGTAVLASRNTVEAKYKTVRYSGKERDATGLYYYGYRYYQPWLGRWLSADPAGTIDGLNLYRMVRNNPVGLMDGDGLMTDKLLAKHEANFAKKNISSMAELKSEIEKLGLLPADSKQLFLHLNGGESDDEPSGSSGSSGSSEILENTSPHKIKNFHFISEINLATMPRPYYKDFSSTEDMLESAERLKAYGSIDTLLTLDLTSEDIPEFTSILADKGINYIAEKQYEIIDYFSEDELSSENIDRIVNMIKTIQNNNHKVGIHCAAGNGRSGLIATAMIINKKYTQSRINSFEEKNKLKEIIDKNKNEINVDAITYDAMKLVRKTNPFAGERTTDIKAAREYSRYLYSKQNR	not soluble
MSVFAFSFCAVVIMPNLLAMSDEETRGRQAMVANFVKDNQKTIRNGKGDKWMSNFLKTQNLTFHRSLSSPSAMSDSSSQNLVVLADVGTAACASGWTRYDLTGMCYQQSKKTMNWYQGEDYCWNLRPGAHSASVHSQEEAKWLNSLYRDKKNGGQMDSWIGLRRDCDNVTYIWTDGSPTDCLWWQPDYPKSEFAEFSCVTIWETDWLYDNPAYIPGQYDDMKECSDDGSNTPTTTTTMQTTTPSTTSTPTTTSTTTTTSASTTTISTTKPPTTQIDIEKCTSNCPVGWIYFGGLCYSKIQGPGRFVDFNSECTRLGGKLGEVSGADGNEALRLALTSNNGNKILDEAWIQHIGSYNNVASGYVGTAGSCYTVLKNSQTN	not soluble
MSVFTPLARPELETFLAPYGLGRLLDYQGIAAGSENTNYFISLEQGEFVLTLVERGPVQEMPFFIELLDVLHDANLPVPYALRTTDGQALRELAGKPALLQPRLPGKHISEPNTQHCVQIGELLANLHLATREQVLERKTDRGLDWMLSEGRNFLSHLGETQRALLEKSLQEIEDLKPQIMALPRANLHADLFRDNVLFEGTHLTGLIDFYNACSGPMLYDLAIALNDWCSRENGQLDAVRARALLGAYAGLRPFTAAESKLWATMLRIACVRFWLSRLIAAETFAGQDVLIHDPVEFEQRLAERQTPHIALPFAL	soluble
MSVLRSMDKLPDLNRATVLLVSTEDALLQQLAESMLKDDCASELRVHLANSLPLPSNVNRPRIDLIVFVINLHSKYSLQKVEEFLQHVDSSFFLGKVCFLVTGAGQESHCSVHQNTVIKLAHTYRSPLFLCDLQKVESFRAAMARRLVRILQICAGHVPGVSALNLMSLLRSPENPPSKEL	not soluble
MSVLSIIACEMLEDELVYVLSKDQNAVRLILVENRQCFRFVRKLKSGNCQARIFPPERISFFIKQMNRPASMKIPNFLLKFPFFGKIHENMKEKNRETITVVVNILKLGLHADCDLLKSEIYRNMKEMVEFSDGILIFYGNCGRPLRGLEAEFKDFNCPLYFLEDEKGNIVDDCISIALGGNDNYAEVMQSGNGTGMIYLTPMWASSWKEMRMEPGDTSDFNVSFLKRHYRKVVKISNEISMGSEFDKNVLNYARTFDMSIIEMKGSMEIAMKSYMNARNGICKKDPIQKSSLEHHHHHH	not soluble
MSVNFFSLITSSWERGLFLKSCKNNSGTDSNRFFSFSVPPNLLDNLLPPLLVRKTLSSSSSKSCGIGGIYFKSSAVNVSEDGLTASTFFSILLPKNFLGITKLFCRIFLLSCPHNYKWFIHLINPFEYENFINIE	soluble
MSVNGAFSPCVVIPCYNHGAMMASVLVRLAPLALPVFIVDDGSDAATQHVLNLLAAENDGVTLIRLANNSGKGAAVMRGIEAVAQAGFSHALQVDADGQHQIEDAPLLLDEAKTHPDCLISGRPRYDDSVPKSRLYGRYVTHVWVWIETLSLSIKDSMCGFRVYPVAATVSLLSRKSLGRRMDFDTEIMVRLYWAGTPSRFIETAVTYPENGLSHFDALHDNLRISWMHTRLFFGMLPRIPVLLMRQRQQHWAGVSERKGLLGMRFMLAVYQRLGRGVFTLFLWPVIAFYWLTGRTARKASQSWLRQIGEYAHQQDILLPKPLNSYHHFLRFGQAMLDKIASWRGDLHWGRDIDFAPGAQEAIEHGRQKGQLILASHLGDIEVCRALAPQVSGLVINALVFTENSQRFKQVLEEIAPQAGVNLIPVSNIGPDTAIMLQQKLDAGEWVAIVGDRTAVHRQRGGVRRVVWSPFLGKEAPFPQGPFVLAAALRCPVLLMFVIREQKKLRVYCEPFADSITLPRPTRQQALQQVVDRYAERLAHYALKSPLDWFNFFDFWSLPDDDGRTAGKKESLEHHHHHH	not soluble
MSVQLKCDAVNCVYNRSHLCSAEEIEVQGGETTGGDATFCGTFSSKSLGNFVSSLGNMNYSGSLKQAVSAEPIMDPKVHCNAVNCTYNDQRYCHADQVEIRNEVSHTAEELEHHHHHH	soluble
MSVSITFTDAAKRALASIVAQSERQLKLAFDTDGCGCLVDGVPALWLVDKADEDDVVVETNFMPVLVERSRLIFFDEAMTIDVKPGTTVFQLKSPGQTLNGHMPLVEVKSGHER	not soluble
MSWMQNLKNYQHLRDPSEYMSQVYGDPLAYLQETTKFVTEREYYEDFGYGECFNSTESEVQCELITGEEDPKLLPYDKRLAWHFKEFCYKTSAHGIPMIGEAPLEHHHHHH	soluble
MSWYTSCPKMLLGATAVAVPLGATVFRRESEKSENLLKIKKAKELVETTMAIQGIPGLSIAVSLDGKMVWKSGFGYANLESFAKCTGDSVMRIASISKPITATLAAQCVENGTLDLDEDIRKYLPEFPAKKFKNEDVKITMRQLLSHSAGIRHYATEKKKSETHEDPSNNNTETPEFLSNKPYNSSLDALAIFKNDDLVEKPGSKFSYTTYGLTLAGAVLEKCSGKTYRQLANQLFSDLGMRNTQLDTKEKIVPGRASYYQRNSKNILENCPEVDCSNKFAGGGIISNTTDLLIIANAILHSILSDSKNCLLQRETIRKFLEKQVPVDSKTSTGLGWFLVDGKDLKSIDGNISNSSFFYHTGAAVGASSVLLVNTSSGVCVAILCNLQNTTVLKLGRDIGDLFHGEI	soluble
MSYDRVKDFDLPELAVHLQPHGAVMIDRKSMFYFRLSGRGAQLAFLLSKNKNLHKTARIWEIMKKEEMSADQLKEELSAHPFTEAWTEGLLDQPLHVSGSLDSYLPISCTLQLTNACNLSCSFCYASSGKPYPEELSSEQWILVMQKLAAHGVADITLTGGEAKLIKGFKELVVVASSLFTNVNVFSNGLNWRDEEVELLSHLGNVSVQISIDGMDNTHDQLRGRKGGFKESMNTIKKLSEANIPVIVAMTINESNADEVSDVVEQCANAGAFIFRAGKTLSVGRATEGFKALDIDFEEMVQIQLREARHKWGDRLNIIDWEHEESSFTTDFCTPGYLAWYIRADGYVTPCQLEDLPLGHILEDSMADIGSPARLLQLKCEAKNCKCIGKIELSEPDLPFQKEVKAGIQE	not soluble
MSYDTDPFRGEFDSLEEFADRVSDVLKCPVTIEDANHRLIAYSAHDDYTDPARTATIISRRVPEKVINSLWKQGAIPALLKSREPVRVPPIHDVGLGSRVAVSIWKNDEVIGFIWVLETNRTLSPEEMEWLKLAAKAAKNKVLQLYMRKNKKEERVQELFWKLLTGHIAREDDIRAHLAAMQIPTAPQFAVVVFRFAADLTAEMERQISYLLQTTQQLPLLLYTTDGRDVILLAAPKTDQPLKELNAFIESFAAKMKERFHIHDVQCGFGGVYGIYRLIEKSYREALAVLALKEKLGDEIKSVYGYAQLGIYQFFDLLLEQKRQGEWTNPALTKLQSYDQKHHSDLVKTFETFFDHNENAQETADVLNVHPNTLAYRLKRIADIAELDLNDMNQKIKLYIDIKLAKYEARG	not soluble
MSYERRKTREVSVGTVKIGGENPISIQSMTNTDTRDADATIAQIKRLEEAGCDIVRVAVPDIKAAKNIAKIKSSVNIPIIADIHFDYKLALEAIKQGVDGIRINPGNIGSIERVKMVVEKCKERNLKIRIGVNGGSLEKELLKKYGSATAEALVESAMGHIKILEDLDFHNIVISLKSSDIYKTVDAYELISKKVDYPLHIGITESGSVHKGTIKSSIGVGALLLKGIGDTVRISLTGDPVEEVIVGKQILRSLGLLNDKIKVISCPTCGRCNIDLISVVNEVEEKIGSMEKNITVAIMGCAVNGPGEAREADIGIAGGKGEGLLFKKGEIVRMIDGNKLVDELLEEIEKL	not soluble
MSYNYLKAARKIICIGRNYAAHIKELNNSTPKQPFFFLKPTSSIVTPLSSSLVKTTRPANSTFNGLNEDGTNPGPIFIPRGVKVHHEIELALIVSKHLSNVTKMKPEEVYDSISGVALALDLTARNVQDEAKKKGLPWTISKGFDTFMPISAIVSREKFSSYKSNLQDIFRVKCSVNGQLRQDGGTNLMLHPLHKILQHISTMISLEPGDIILTGTPAGVGELKPGDRVHCELLQNNDNIVDMNFECENRPGPYEFRET	soluble
MSYRYMRMILMFDMPTDTAEERKAYRKFRKFLLSEGFIMHQFSIYSKLLLNNTANNAMIGRLREHNPNKGNITLLTVTEKQFARMIYLHGERNNCIANSDERLVFLGEAFDES	not soluble
MSYTTDEVHFLLDLDAEITAVAGAITRDHAMTKATAVKDAATFHKHFGANGRAAMELCASRTSAQGKLPHDWLMCHDSSQQATPLTVAQQRAHRIHRVCGSEAIVHDVTCSIGTEGAAITDLGMAYHGSDLDMSRLLMARHNVPTGLFFQADALKRASTSSDVIIADPARRAEGRRITKPDQLIPPLPQLVDHWRIATTTAAPMAIKCAPGLDFQEWDGLVSVVSVAGGVKEACLYTPELSEGLTREAIMIGPDQSVDVLNDRHGGEVPAGDPGTFIIDPDGAVVRAGLVQHYAAREQLWMLDEHIAYLTGDRIPQGRSGFRFIEMVGLKQLKSALVAHDAGSLEILVRGVDVDPDQLRKKLKLKGNTPMAVICTRIGRKGVALICHAREHSQT	not soluble
MTAAARTPAFYLDLGVPDTVMGRFEMLSVIMILYFRRTKSSGVSGQEIAQEIVDAFFQDIDHSIRELGIGDQGVPKRMKKFAGMFYGRLESYAAALDASDCAALAAALRRNIYPQVDDEAPEMEGLAGWMMETSDALAAQSEETIATGSLTLPLPILEHHHHHH	not soluble
MTAAMYDLMDYDEVLEKFDPVMGLEVHVELATETKMFSAPSAHFGAEPNSNVDPVSLGLPGALPVVNAKGVEWAIKIGLALNCKIAESSRFARKNYFYPDQPKNYQISQYDEPIAYDGYLDVVLDDGTPWRVEIERAHMEEDTGKLTHLGGADGRIHGATASLVDCNRAGIPLIEIVTKPIEGAGERAPEVARAYVGALRDLVKALGVSDARMDQGSMRCDANVSLRPVGTVEFGTRTETKNINSLKSVEQAVRYEMQRQAQVLEDGGEIVQETRHYQETDGSTSKGRPKETAEDYRYFNDPDLPPVIAPKEWVEEIRATLPELPWIRRARIQKEWGLKDEEMRDLVNAGALDLIVETVEAGASASEARSWWVAYLSQKANESGVELDSLSITPQQVARVAALVKEGKLTNKLARQAVDGVLAGEGDVDEVVAARGLEVVRDDGAIEKAVDEALAANPDIVEKYKAGNTKVTGAIVGAVMKATRGKADPAQVNKLIAEKLA	not soluble
